From the supplement of paper PMC10567573

B1: SEPHS2 (parent)
chain: KASGRFGLLQGTSAETSGGLLICL
B2: KLHL14 (parent)
chain: WLYCYDPVMDVWARKQDMNTKRAI

Variants of: B1
Experiment: protein stability index of a GFP-peptide fusion (GPS, HEK-293T) (PSI 1-6); higher = more stable
Details: c terminus: a fixed tail appended
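Also: lentivirally expressed fusions sorted by FACS into six bins by GFP to DsRed ratio, PSI derived from sequencing read proportions per bin multiplied by bin number.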

| Variant | protein stability index |
| --- | --- |
| G18C | 3.15 |
| G18P | 2.98 |
| G18N | 2.2 |
| G18K | 2.4 |
| G18Q | 2.5 |
| G18D | 2.67 |
| L20A | 2.87 |
| L20G | 1.96 |
| L20S | 1.94 |
| L20E | 1.82 |
| L20P | 2.39 |
| L20N | 2.63 |
| L20K | 1.95 |
| L20Q | 2.58 |
| L20H | 2.07 |
| Q10M | 3.87 |
| Q10V | 3.11 |
| Q10N | 2.95 |
| Q10I | 3.54 |
| Q10S | 1.71 |
| Q10E | 2.2 |
| Q10P | 2.19 |
| E15T | 2.48 |

| Variant | protein stability index |
| --- | --- |
| E15A | 2.02 |
| E15C | 2.82 |
| E15D | 2.1 |
| E15R | 1.37 |
| E15Y | 4.55 |
| E15W | 1.66 |
| E15I | 1.91 |
| T16S | 1.61 |
| T16R | 2.58 |
| T16I | 2.5 |
| T16F | 3.47 |
| T16H | 1.88 |
| T16M | 2.06 |
| F6L | 2.48 |
| F6I | 2.31 |
| F6E | 2.37 |
| F6S | 1.81 |
| F6D | 1.03 |
| F6V | 1.57 |
| F6K | 1.79 |
| F6W | 4.73 |
| F6Q | 2.79 |
| F6T | 3.52 |

| Variant | protein stability index |
| --- | --- |
| F6Y | 1.75 |
| F6M | 2.44 |
| A14Q | 3.85 |
| A14N | 2.93 |
| A14T | 1.72 |
| A14H | 2.43 |
| A14E | 2.62 |
| A14Y | 2.24 |
| A14C | 1.81 |
| A14L | 2.44 |
| S17F | 2.78 |
| S17N | 2.67 |
| S17W | 3.02 |
| S17G | 2.08 |
| S17L | 1.18 |
| S13Q | 1.5 |
| S13K | 2.7 |
| S13D | 2.01 |
| S13V | 4.84 |
| S13M | 2.24 |
| L21A | 1.04 |
| L21D | 2.12 |
| R5L | 3.49 |

| Variant | protein stability index |
| --- | --- |
| R5H | 3.5 |
| R5W | 1.66 |
| R5D | 2.61 |
| R5V | 3.1 |
| R5I | 3.36 |
| R5A | 5.51 |
| R5T | 3.23 |
| R5C | 2.27 |
| R5F | 3.72 |
| R5K | 2.97 |
| A2G | 1.38 |
| A2D | 2.81 |
| A2W | 2.41 |
| A2S | 3.5 |
| A2Q | 3.26 |
| A2Y | 2.29 |
| A2V | 3.69 |
| G19L | 2.19 |
| G19Q | 2.1 |
| G19T | 1.74 |
| G19I | 2.54 |
| G19Y | 1.89 |
| G19M | 2.76 |

| Variant | protein stability index |
| --- | --- |
| G19H | 1.74 |
| G19R | 2.62 |
| G19A | 3.71 |
| T12F | 3.31 |
| T12L | 3.67 |
| T12E | 2.52 |
| G4E | 3.09 |
| G4Q | 2.76 |
| G4K | 3.51 |
| G4L | 2.01 |
| G4P | 1.95 |
| G4D | 2.9 |
| G4S | 3.04 |
| G4A | 4.01 |
| G4T | 3.11 |
| K1G | 1.44 |
| K1N | 1.95 |
| K1L | 2.28 |
| K1T | 1.69 |
| K1E | 2.6 |
| K1C | 2.13 |
| K1D | 2.07 |
| K1W | 2.52 |

| Variant | protein stability index |
| --- | --- |
| K1S | 3.13 |
| G11N | 2.76 |
| G11R | 3.92 |
| G11S | 1.86 |
| G11Q | 2.54 |
| G11K | 3.04 |
| G11T | 4.7 |
| G11H | 2.12 |
| G11M | 2.37 |
| L9V | 1.74 |
| L9N | 1.78 |
| L9Y | 2.09 |
| L9P | 2.32 |
| L9R | 2.98 |
| L9E | 2.76 |
| L9I | 2.41 |
| G7Y | 2.71 |
| G7D | 3.42 |
| G7W | 2.21 |
| G7I | 2.32 |
| G7N | 2.13 |
| G7T | 1.88 |
| G7H | 2.78 |

| Variant | protein stability index |
| --- | --- |
| G7L | 3.5 |
| G7S | 2.55 |
| G7A | 3.63 |
| G7K | 3.27 |
| S3H | 4.72 |
| S3P | 3.31 |
| S3E | 2.76 |
| S3T | 3.36 |
| S3A | 1.55 |
| S3D | 2.07 |
| S3R | 1.82 |
| S3M | 1.51 |
| S3F | 1.71 |
| L8V | 3.22 |
| L8A | 2.02 |
| L8F | 2.18 |
| L8M | 2.26 |
| L8G | 3.65 |
| L8I | 2.17 |
| L8C | 3.4 |
| L8K | 3.37 |
| L8W | 2.08 |
| L8Y | 1.85 |

Variants of: B2
Experiment: as above
Details: c terminus: a fixed tail appended

| Variant | protein stability index |
| --- | --- |
| A23N | 1.7 |
| A23E | 2.33 |
| A23T | 1.76 |
| A23F | 2.24 |
| A23V | 1.63 |
| A23H | 2.02 |
| W12E | 2.06 |
| W12I | 1.47 |
| W12D | 2.23 |
| W12S | 1.5 |
| W12N | 2.2 |
| W12P | 1.76 |
| T20M | 1.7 |
| T20V | 2.11 |
| T20C | 1.62 |
| T20E | 1.95 |
| T20G | 2.57 |
| T20D | 2.15 |
| T20R | 1.77 |
| I24H | 2.63 |
| I24G | 2.13 |
| I24D | 2.92 |
| I24E | 2.31 |
| I24T | 1.87 |
| I24R | 1.4 |

| Variant | protein stability index |
| --- | --- |
| I24P | 2.68 |
| I24C | 1.99 |
| I24V | 2.53 |
| P7I | 1.93 |
| P7V | 2.08 |
| P7S | 1.62 |
| P7F | 3.12 |
| P7E | 1.88 |
| P7H | 2.1 |
| P7A | 2.87 |
| P7C | 2.33 |
| P7Q | 1.51 |
| P7K | 2.24 |
| P7D | 2.28 |
| Q16H | 2.27 |
| Q16T | 1.83 |
| Q16R | 1.95 |
| Q16D | 2.15 |
| Q16N | 2.16 |
| Q16C | 1.81 |
| C4G | 2.58 |
| C4L | 1.61 |
| C4T | 2.84 |
| C4W | 2.35 |
| C4E | 2.41 |

| Variant | protein stability index |
| --- | --- |
| C4I | 1.96 |
| C4H | 2.6 |
| C4A | 2.34 |
| L2R | 2.06 |
| L2A | 2.24 |
| L2K | 2.29 |
| L2F | 1.45 |
| N19Y | 1.72 |
| N19W | 2.53 |
| N19V | 2.55 |
| N19K | 2.02 |
| N19P | 1.93 |
| N19F | 1.52 |
| N19G | 2 |
| N19S | 1.83 |
| N19I | 1.57 |
| K21Q | 1.86 |
| K21V | 1.91 |
| K21A | 1.78 |
| K21L | 1.88 |
| K21T | 1.83 |
| K21Y | 1.92 |
| K21D | 2.34 |
| K21R | 1.83 |
| R22L | 1.83 |

| Variant | protein stability index |
| --- | --- |
| R22G | 1.69 |
| R22S | 2.12 |
| R22D | 2.13 |
| R22H | 2.01 |
| R22V | 1.72 |
| R22Q | 1.77 |
| R22C | 2.15 |
| R22E | 2.19 |
| R14M | 1.93 |
| R14D | 2.11 |
| R14Y | 1.81 |
| R14W | 1.85 |
| R14F | 1.57 |
| R14N | 1.77 |
| R14L | 2.36 |
| R14T | 1.54 |
| M18L | 1.82 |
| M18I | 2.28 |
| M18Q | 2.08 |
| M18R | 2.48 |
| M18Y | 2.17 |
| M18N | 2.77 |
| M18A | 2.15 |
| M18G | 3.03 |
| D10C | 1.91 |

| Variant | protein stability index |
| --- | --- |
| D10K | 3.09 |
| D10M | 1.59 |
| D10P | 1.72 |
| D10R | 2.34 |
| D10T | 1.69 |
| D10V | 1.52 |
| D10A | 1.88 |
| D17T | 1.78 |
| D17W | 2.58 |
| D17G | 1.97 |
| D17E | 1.8 |
| W1F | 1.99 |
| W1Q | 3.33 |
| W1R | 2.55 |
| W1A | 2.56 |
| W1S | 3.06 |
| W1E | 3.72 |
| W1Y | 2.25 |
| W1V | 1.63 |
| W1G | 2.4 |
| W1L | 2.53 |
| K15Q | 1.95 |
| K15T | 1.71 |
| K15L | 2.21 |
| K15M | 1.54 |

| Variant | protein stability index |
| --- | --- |
| K15Y | 2.08 |
| K15E | 2.21 |
| Y5A | 1.92 |
| Y5P | 2.9 |
| Y5I | 1.93 |
| Y5S | 2.46 |
| Y5M | 1.92 |
| Y5T | 1.83 |
| V8Y | 2.14 |
| V8Q | 1.78 |
| V8P | 1.8 |
| V8L | 2.25 |
| D6Y | 2.54 |
| D6S | 1.7 |
| D6E | 1.74 |
| D6H | 2.6 |
| D6I | 1.83 |
| M9W | 1.64 |
| M9F | 1.62 |
| M9R | 2.09 |
| M9G | 1.77 |
| M9K | 2.02 |
| M9T | 2.55 |
| M9N | 2.18 |
| M9L | 2.17 |

| Variant | protein stability index |
| --- | --- |
| M9D | 1.92 |
| V11Q | 1.98 |
| V11M | 1.61 |
| V11T | 2.32 |
| V11E | 2.3 |
| V11A | 1.93 |
| V11Y | 1.92 |
| V11K | 1.95 |
| V11I | 1.43 |
| Y3N | 2.12 |
| Y3P | 2.7 |
| Y3L | 2.15 |
| Y3A | 2.02 |
| Y3H | 2.22 |
| Y3S | 1.77 |
| Y3E | 2.33 |
| Y3W | 2.42 |
| Y3R | 1.25 |
| Y3M | 1.96 |
| A13V | 2.13 |
| A13H | 2.67 |
| A13Q | 2.46 |
| A13C | 1.81 |
